Assay results: US20230285583A1, “LIQUID FORMULATION OF LONG-ACTING CONJUGATE OF GLUCAGON, GLP-1, AND GIP TRIGONAL AGONIST” (HANMI PHARM, CO., LTD., priority 2020, published 2023)
Bridge positions count the residues as written; N and C are the ends. Square brackets hold non-standard residues; d marks the D form. Ends that are not written are not given here. * marks the point of attachment. Acetyl(2-(4-imidazolyl)) = O=C(Cc1c[nH]cn1)*; Aib = CC(C)(N)C(=O)O

T1: human GIP receptor (human, UniProt P48546 22-466)
T1 sequence (looked up): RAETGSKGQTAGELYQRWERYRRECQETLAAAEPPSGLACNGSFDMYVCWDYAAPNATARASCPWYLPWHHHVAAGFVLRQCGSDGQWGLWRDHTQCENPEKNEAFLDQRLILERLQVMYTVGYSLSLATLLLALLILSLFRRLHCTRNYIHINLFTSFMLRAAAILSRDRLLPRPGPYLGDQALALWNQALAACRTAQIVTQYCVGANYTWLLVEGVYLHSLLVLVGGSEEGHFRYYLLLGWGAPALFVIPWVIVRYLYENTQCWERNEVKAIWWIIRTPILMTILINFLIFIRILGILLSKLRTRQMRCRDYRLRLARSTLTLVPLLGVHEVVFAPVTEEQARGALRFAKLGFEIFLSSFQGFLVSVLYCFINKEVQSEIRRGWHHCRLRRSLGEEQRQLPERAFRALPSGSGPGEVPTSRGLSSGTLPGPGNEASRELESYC


Experiments:
Assay in all cases: cell-based or functional assay
[1] = biological target: human GLP-1 receptor (human, UniProt P43220 24-463)
[2] = biological target: human GCG receptor (human, UniProt P47871 26-477)
human GCG receptor, sequence (P47871 26-477): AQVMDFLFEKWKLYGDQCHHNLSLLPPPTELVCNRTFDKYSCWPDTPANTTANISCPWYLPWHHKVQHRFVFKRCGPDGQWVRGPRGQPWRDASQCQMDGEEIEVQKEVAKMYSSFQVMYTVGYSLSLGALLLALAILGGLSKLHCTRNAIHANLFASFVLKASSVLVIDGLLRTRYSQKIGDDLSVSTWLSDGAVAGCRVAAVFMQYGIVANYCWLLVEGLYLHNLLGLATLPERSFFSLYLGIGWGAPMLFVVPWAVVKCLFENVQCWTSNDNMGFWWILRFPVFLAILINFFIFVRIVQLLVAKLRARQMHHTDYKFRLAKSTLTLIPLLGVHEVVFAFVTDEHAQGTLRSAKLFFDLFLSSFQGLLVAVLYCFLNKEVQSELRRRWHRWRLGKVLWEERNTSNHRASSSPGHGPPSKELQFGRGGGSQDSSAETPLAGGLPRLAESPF

[3] = biological target: T1, human GIP receptor

Row | Binder | In Vitro Activity Compared to Native Peptide (%) vs. GLP-1 (relative titer from cAMP EC50) [1] [%] | In Vitro Activity Compared to Native Peptide (%) vs. Glucagon (relative titer from cAMP EC50) [2] [%] | In Vitro Activity Compared to Native Peptide (%) vs. GIP (relative titer from cAMP EC50) [3] [%]
1 | H[Aib]QGTFTSDYSKYLDEKRQKEFVQWLLDTC (bridge 16-20; not fully specified (bridges)) [trigonal agonist of SEQ ID NO: 13] | 44.1 | 7.5 | 0.3
2 | Y[Aib]QGTFTSDYSKCLDEKRAKEFVQWLLDHHPSSGQPPPS (bridge 16-20; not fully specified (bridges)) [trigonal agonist of SEQ ID NO: 2] | 20.1 | 140 | 59.7
3 | H[Aib]EGTFTSDYSIAMDEIHQKDFVNWLLAQC (lactam 16-20) [trigonal agonist of SEQ ID NO: 14] | 161 | 8.4 | 1.3
4 | H[Aib]EGTFTSDYSIAMDEIHQKDFVDWLLAEC (bridge 16-20; not fully specified (bridges)) [trigonal agonist of SEQ ID NO: 15] | 30.6 | 1.4 | 0.1
5 | H[Aib]QGTFTSDYSIAMDEIHQKDFVNWLLAQC (lactam 16-20) [trigonal agonist of SEQ ID NO: 16] | 27.1 | 0.7 | 2.4
6 | H[Aib]QGTFTSDYSKYLDEKRQKEFVNWLLAQC (bridge 16-20; not fully specified (bridges)) [trigonal agonist of SEQ ID NO: 17] | 57.9 | 4.9 | 0.8
7 | H[Aib]QGTFTSDYSKYLDEKRQKEFVQWLLNTKC (bridge 16-20; not fully specified (bridges)) [trigonal agonist of SEQ ID NO: 18] | 39.1 | 2.6 | 0.2
8 | Y[Aib]QGTFTSDYSKYLDECAAKEFVQWLLDHHPSSGQPPPS (bridge 16-20; not fully specified (bridges)) [trigonal agonist of SEQ ID NO: 19] | 64.6 | 60.1 | 92.9
9 | H[Aib]QGTFTSDYSKCLDEKRAKEFVQWLLDHHPSSGQPPPS (bridge 16-20; not fully specified (bridges)) [trigonal agonist of SEQ ID NO: 20] | 95.4 | 25.2 | 11.6
10 | Y[Aib]QGTFTSDYSKYLDECRAKDFVQWLLDHHPSSGQPPPS (bridge 16-20; not fully specified (bridges)) [trigonal agonist of SEQ ID NO: 21] | 15.8 | 172 | 17.2
11 | Y[Aib]QGTFTSDYSKYLDECAAKDFVQWLLDHHPSSGQPPPS (bridge 16-20; not fully specified (bridges)) [trigonal agonist of SEQ ID NO: 22] | 28.5 | 46.2 | 39.8
12 | Y[Aib]QGTFTSDYSKCLDEKAAKEFVQWLLDHHPSSGQPPPS (bridge 16-20; not fully specified (bridges)) [trigonal agonist of SEQ ID NO: 23] | 27.9 | 8.8 | 107
13 | H[Aib]QGTFTSDYSKYLDEKAQKEFVQWLLDTC (bridge 16-20; not fully specified (bridges)) [trigonal agonist of SEQ ID NO: 3] | 142 | 0.7 | 0.8
14 | Y[Aib]QGTFTSDYSKCLDERAAKEFVQWLLDHHPSSGQPPPS (bridge 16-20; not fully specified (bridges)) [trigonal agonist of SEQ ID NO: 24] | 24.3 | 9.6 | 62.8
15 | Y[Aib]QGTFTSDYSKCLDEKRAKDFVQWLLDHHPSSGQPPPS (bridge 16-20; not fully specified (bridges); ends not checked) [trigonal agonist of SEQ ID NO: 25] | 15.1 | 71.3 | 64.4
16 | Y[Aib]QGTFTSDYSKYLDERACKDFVQWLLDHHPSSGQPPPS (bridge 16-20; not fully specified (bridges); ends not checked) [trigonal agonist of SEQ ID NO: 26] | 90.1 | 12.7 | 94.7
17 | Y[Aib]QGTFTSDCSKYLDERAAKDFVQWLLDHHPSSGQPPPS (bridge 16-20; not fully specified (bridges); ends not checked) [trigonal agonist of SEQ ID NO: 27] | 11.5 | 1 | 1.6
18 | [Acetyl(2-(4-imidazolyl))][Aib]QGTFTSDYSKYLDECRAKEFVQWLLDHHPSSGQPPPS (bridge 16-20; not fully specified (bridges)) [trigonal agonist of SEQ ID NO: 28] | 22.6 | 5.4 | 3
19 | [Acetyl(2-(4-imidazolyl))][Aib]QGTFTSDYSKCLDEKRAKEFVQWLLDHHPSSGQPPPS (bridge 16-20; not fully specified (bridges)) [trigonal agonist of SEQ ID NO: 29] | 12.9 | 0.9 | 1
20 | Y[Aib]QGTFTSDYSKYLDEKAAKEFVQWLLDHHPSSGQPPPSC (bridge 16-20; not fully specified (bridges)) [trigonal agonist of SEQ ID NO: 30] | 35.1 | 8.5 | 18
21 | Y[Aib]QGTFTSDYSKYLDEKRAKDFVQWLLDHHPSSGQPPPSC (bridge 16-20; not fully specified (bridges)) [trigonal agonist of SEQ ID NO: 31] | 10.3 | 47.6 | 11.7
22 | Y[Aib]QGTFTSDYSKYLDEKAAKDFVQWLLDHHPSSGQPPPSC (bridge 16-20; not fully specified (bridges)) [trigonal agonist of SEQ ID NO: 32] | 38.7 | 12.2 | 35.5
23 | H[Aib]QGTFTSDYSKYLDEKRQKEFVQWLLDTKC (bridge 16-20; not fully specified (bridges)) [trigonal agonist of SEQ ID NO: 33] | 51 | 14 | 0.12
